Laboratory results: patent US9023987B2, “Cell-permeable peptide” (Seoul National University R&DB Foundation, priority 2010, dated 2015)

What was measured:
[1] = biological target: T1, human-derived Smurf1 protein (Homo sapiens, UniProt Q9HCE7); assay: Affinity to Smurf1 by surface plasmon resonance (BIACORE T100); assay type: binding; conditions: 10 mM analyte over Smurf1 coupled to CM5 chip; FIG. 2A
T1 construct: purchased Origene Technologies (Rockville, Md., USA)
Description: In order to confirm the affinity between cell permeable peptide-bone differentiation inducing sequence conjugate and Smurf1 by a chemical method, a human-derived Smurf1 protein acting as a ligand in the present experiment was purchased from Origene Technologies (Rockville, Md., USA). The protein ([…]) was coupled to a gold coated surface of a CM5 chip (BIACORE AB, Sweden) on which amino groups are bounded using an EDC/NHS kit (BIACORE AB, Sweden). (Instead of this experimental method, ‘Immobilization’ integrated into the BIACORE® T100 (BIACORE AB, Sweden) software used by the present inventors may be used). In this case, in order to find a suitable pH condition at which the protein may bind to the amino group in the CM5 chip, a method called ‘pH scouting’ was performed, thereby finding a pH condition. As a method of ‘pH scouting’, a method integrated in the BIACORE® T100 (BIACORE AB, Sweden) software used by the present inventors may be used. […]

[2] = tested on: human mesenchymal stem cells (hMSC); assay: Cell permeability by fluorescence imaging (confocal scanning microscope); assay type: cell-based; conditions: FITC/fluorescence-labeled, FIG. 3A, FIG. 7
Description: The domains synthesized in Example 1 and Comparative Examples 1 and 2 were labeled with a fluorescent material in order to measure cell permeability. 10 equivalents of fluorescein isothiocyanate (FITC) was bound to N-terminals of the synthesized domains by using triethylamine (1 ml per 1 g of resin). The synthesis of the peptide was confirmed by measuring the molecular weight thereof through MALDI-TOF.
In order to measure the cell permeability of the cell permeable peptide-bone differentiation inducing sequence conjugate, after sterile slide glass was input in a 6-well plate and 2×10^4 human mesenchymal stem cells (hMSC) were plated in each well, the cells were cultured in a general medium for 20 hours (overnight incubation). Then the cells was cultured in an hMSC basal medium (MSCBM, LONZA, USA) containing 0.5% fetal bovine serum (FBS, GIBCO, USA) for 20 hours (overnight starvation). […] fluorescence labeled cell permeable peptide-bone differentiation inducing sequence conjugate and […] fluorescence labeled bone differentiation inducing sequence that were obtained by binding FITC (SIGMA, USA) N-terminals of the cell permeable peptide-bone differentiation inducing sequence conjugate synthesized by the method in Example 1 and the domain in Comparative Example 2 to synthesize the fluorescence label conjugate and fluorescence label domain, followed by isolation and purification, were injected into each well and washed with phosphate buffer solution (PBS) two times after 20 minutes and 80 minutes of injection. The resultants was observed using a confocal scanning microscope (IX 70, Olympus Co., Tokyo, Japan).

[3] = biological target: T1, human-derived Smurf1 protein; assay: Slot-blot assay of binding to Smurf1
From the text: In order to confirm presence or absence of the active site of the cell permeable peptide-bone differentiation inducing sequence conjugate synthesized by the method in Example 1 for binding to Smurf1 and binding degrees according to the concentration, a slot blot assay were used. This experimental method is a molecular biological method of positioning a protein on a membrane and sucking the protein in the other side to strongly attach the protein on a surface of the membrane, directly positioning a material to be confirm an interaction with the attached protein and culturing for a predetermine time to induce the binding, and blotting them using antibodies to confirm the interaction (affinity) between the protein and the material through a difference of each Dot.
1 μg of human-derived Smurf1 protein was input […] per well using a slot blot device (Hoefer, Pharmacia Biotech, USA) and blotted on a predetermined position on a nitrocellulose membrane (2 μm, Pall, USA) in a vacuum state. After blotting, the nitrocellulose membrane was blocked with phosphate buffer solution containing 0.5% Tween® 20 at room temperature for 30 minutes, and then completely dried. […]

T1 sequence (Q9HCE7 whole entry): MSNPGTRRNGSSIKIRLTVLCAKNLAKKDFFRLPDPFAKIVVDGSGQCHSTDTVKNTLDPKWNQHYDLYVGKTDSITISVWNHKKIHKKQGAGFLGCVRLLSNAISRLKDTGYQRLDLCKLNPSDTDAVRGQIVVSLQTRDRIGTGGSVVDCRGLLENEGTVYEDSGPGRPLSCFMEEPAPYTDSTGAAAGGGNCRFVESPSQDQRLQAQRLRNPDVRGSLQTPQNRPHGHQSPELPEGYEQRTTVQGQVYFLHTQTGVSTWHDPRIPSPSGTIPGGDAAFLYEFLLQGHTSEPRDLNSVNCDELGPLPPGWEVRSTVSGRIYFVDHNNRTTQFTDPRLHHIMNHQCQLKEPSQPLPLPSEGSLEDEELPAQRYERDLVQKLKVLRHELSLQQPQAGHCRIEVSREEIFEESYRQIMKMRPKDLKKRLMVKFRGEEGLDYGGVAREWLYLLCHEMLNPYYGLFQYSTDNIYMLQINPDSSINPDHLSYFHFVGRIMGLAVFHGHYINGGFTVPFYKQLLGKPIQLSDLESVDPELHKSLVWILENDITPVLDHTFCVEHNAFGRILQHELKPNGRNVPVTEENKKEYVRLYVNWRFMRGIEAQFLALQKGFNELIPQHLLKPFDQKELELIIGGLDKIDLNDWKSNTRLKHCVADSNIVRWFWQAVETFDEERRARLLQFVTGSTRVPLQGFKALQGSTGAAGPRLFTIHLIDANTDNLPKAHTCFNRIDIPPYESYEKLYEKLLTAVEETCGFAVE

“NH2-GAPPPADSAP-SSRKKNPNCRRH-C-COONH2 (H-GAPPPADSAPSSRKKNPNCRRHC-NH2; cysteine pairing not given here) [Example 1]” was tested, and the “affinity to Smurf1” value [1] was 600 RU, the “intracellular fluorescence after 20 minutes (confocal)” value ([2]; 20 minutes) was “fluorescent particles were observed in the cytoplasm” and the “intracellular fluorescence after 80 minutes (confocal)” value ([2]; 80 minutes) was “clearly observed in the cytoplasm and nucleus”. The “concentration at which an increase of dot size began” value ([3]; 0.1, 1, 10, and 100 mM, 4° C., 20 hours, FIG. 2D) was 10 mM and the “binding to Smurf1 protein detected as dot” value ([3]; biotinylated domains, slot blot, FIG. 2C) was “a dot was confirmed”.
